For experiment [1], the target named is PDCoV S2 protein (porcine deltacoronavirus (PDCoV)). As to the kind of experiment: ELISA. (In general: ELISA stands for enzyme-linked immunosorbent assay.)
The target of experiment [2] is PDCoV S1 protein (porcine deltacoronavirus (PDCoV)). As to the kind of experiment: ELISA.

Turning to “Griffithsin (from UniProt P84801 1-121) (natural protein)”, the figures for the OD450 reached in ELISA in experiment [1] and in experiment [2] were 1.93 OD450 and 3.68 OD450, respectively.

For the origin of these results see paper PMC8660055.
